Earlier results, collected in PMC7062049.

Target: HP1β CSD (Mus musculus) (UniProt P83917)

HP1β CSD (from UniProt P83917)
Kd: 150 nM
